{"source": "patent US20040161448", "proteins": {"B1": {"name": "protease derived from Nocardiopsis sp. NRRL 18262 (protein)", "chain": "ADIIGGLAYTMGGRCSVGFAATNAAGQPGFVTAGHCGRVGTQVTIGNGRGVFEQSVFPGNDAAFVRGTSNFTLTNLVSRYNTGGYATVAGHNQAPIGSSVCRSGSTTGWHCGTIQARGQSVSYPEGTVTNMTRTTVCAEPGDSGGSYISGTQAQGVTSGGSGNCRTGGTTFYQEVTPMVNSWGVRLRT"}}, "key": {"[1]": {"biological_target": "T1, soybean Bowman-Birk Inhibitor, P01055", "T1 chain": "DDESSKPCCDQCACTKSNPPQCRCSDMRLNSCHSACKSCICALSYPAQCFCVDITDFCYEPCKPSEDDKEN"}, "[2]": {"biological_target": "T2, Soybean Kunitz Trypsin Inhibitor, P01070", "T2 chain": "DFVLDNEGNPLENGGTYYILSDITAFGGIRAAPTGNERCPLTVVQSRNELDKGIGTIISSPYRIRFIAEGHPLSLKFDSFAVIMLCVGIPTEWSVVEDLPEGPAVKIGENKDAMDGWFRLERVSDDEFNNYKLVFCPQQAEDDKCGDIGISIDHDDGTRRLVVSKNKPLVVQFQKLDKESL"}, "[3]": {"biological_target": "soybean agglutinin (SBA), P05046", "sequence (P05046 33-285)": "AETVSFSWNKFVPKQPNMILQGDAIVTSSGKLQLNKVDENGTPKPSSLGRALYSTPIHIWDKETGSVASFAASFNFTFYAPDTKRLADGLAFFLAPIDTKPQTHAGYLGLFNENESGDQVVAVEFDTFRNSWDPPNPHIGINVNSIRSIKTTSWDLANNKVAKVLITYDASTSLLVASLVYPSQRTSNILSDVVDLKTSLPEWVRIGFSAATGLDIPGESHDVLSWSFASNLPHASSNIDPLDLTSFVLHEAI"}}, "data": [{"protein": "B1", "values": [{"measurement": "% of anti-nutritional factor degraded", "setting": "[1]", "result": 25, "unit": "%"}, {"measurement": "% of anti-nutritional factor degraded", "setting": "[2]", "result": 100, "unit": "%"}, {"measurement": "% of anti-nutritional factor degraded", "setting": "[3]", "result": 75, "unit": "%"}]}]}
